Results taken from patent US20090263375A1 (WISCONSIN ALUMNI RESEARCH FOUNDATION, published 2009).

Assays:
Symplekin = molecular target: T1, Symplekin (human, UniProt Q92797 1-1274); test: FLAG affinity purification from HEK 293 cells, western blot
T1 sequence (looked up): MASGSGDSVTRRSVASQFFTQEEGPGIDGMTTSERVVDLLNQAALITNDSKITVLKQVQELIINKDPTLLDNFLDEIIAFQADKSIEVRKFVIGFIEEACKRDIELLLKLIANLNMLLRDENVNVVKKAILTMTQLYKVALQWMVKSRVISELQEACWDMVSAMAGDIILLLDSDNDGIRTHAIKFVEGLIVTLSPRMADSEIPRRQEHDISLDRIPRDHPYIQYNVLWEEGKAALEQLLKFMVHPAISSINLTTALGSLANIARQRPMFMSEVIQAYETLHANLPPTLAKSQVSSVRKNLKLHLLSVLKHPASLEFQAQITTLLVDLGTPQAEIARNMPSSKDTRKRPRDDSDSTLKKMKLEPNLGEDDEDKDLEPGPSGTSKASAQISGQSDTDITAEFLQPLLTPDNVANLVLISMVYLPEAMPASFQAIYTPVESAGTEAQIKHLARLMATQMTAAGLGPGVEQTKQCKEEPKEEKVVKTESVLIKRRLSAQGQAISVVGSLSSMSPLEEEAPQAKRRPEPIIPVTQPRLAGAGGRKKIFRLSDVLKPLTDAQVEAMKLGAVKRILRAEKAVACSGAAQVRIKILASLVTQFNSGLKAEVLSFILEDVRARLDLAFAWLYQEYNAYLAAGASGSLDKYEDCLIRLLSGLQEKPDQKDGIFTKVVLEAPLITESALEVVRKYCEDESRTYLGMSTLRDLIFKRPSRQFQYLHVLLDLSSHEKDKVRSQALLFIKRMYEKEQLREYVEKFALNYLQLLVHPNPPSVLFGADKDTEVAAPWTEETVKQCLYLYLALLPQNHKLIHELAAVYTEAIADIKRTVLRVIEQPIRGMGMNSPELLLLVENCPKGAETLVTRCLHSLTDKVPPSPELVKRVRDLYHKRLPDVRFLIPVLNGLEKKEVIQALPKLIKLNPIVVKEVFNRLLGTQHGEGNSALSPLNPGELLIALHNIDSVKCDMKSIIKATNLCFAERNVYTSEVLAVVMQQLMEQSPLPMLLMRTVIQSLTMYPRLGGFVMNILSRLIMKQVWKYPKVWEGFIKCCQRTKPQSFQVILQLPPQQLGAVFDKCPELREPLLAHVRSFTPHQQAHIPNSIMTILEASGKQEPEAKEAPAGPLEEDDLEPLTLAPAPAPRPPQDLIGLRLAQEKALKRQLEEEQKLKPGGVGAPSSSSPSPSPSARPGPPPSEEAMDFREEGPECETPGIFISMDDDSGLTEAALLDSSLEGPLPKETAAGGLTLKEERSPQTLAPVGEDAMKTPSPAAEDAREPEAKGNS
Procedure: (§1) Affinity purification of Flag-Star-PAP and Flag-PAPα and their associated complex of proteins in parallel allowed a comparison of the complexes formed by Star-PAP and PAPα in more detail. Flag tagged Star-PAP and PAPα were purified from HEK 293 cells stably expressing Flag-Star-PAP or Flag-PAPα (following manufacturer's instructions; Sigma-Aldrich) and the presence of endogenous symplekin, CPSF¹⁰⁰, CPSF⁷³, CstF⁶⁴, RNA Pol II, Sm protein (Y12) and PIPKIα was assessed by western blotting. Like Flag-PAPα, Flag-Star-PAP associates with symplekin, CPSF¹⁰⁰ and CPSF⁷³, further confirmation that Star-PAP may function in an mRNA polyadenylation complex (FIG. 7). Also detected with both PAPs was a faster migrating form of RNA Pol II and Sm protein (Y-12), a component of the spliceosome, which is consistent with reports that the machinery for splicing and polyadenylation are coupled.

[1] = molecular target: T2, CPSF-100 (Cleavage and Polyadenylation Specificity Factor subunit 100) (human, UniProt Q9P2I0 1-782); test: as above
T2 construct: also called SPSF-100
T2 sequence (looked up): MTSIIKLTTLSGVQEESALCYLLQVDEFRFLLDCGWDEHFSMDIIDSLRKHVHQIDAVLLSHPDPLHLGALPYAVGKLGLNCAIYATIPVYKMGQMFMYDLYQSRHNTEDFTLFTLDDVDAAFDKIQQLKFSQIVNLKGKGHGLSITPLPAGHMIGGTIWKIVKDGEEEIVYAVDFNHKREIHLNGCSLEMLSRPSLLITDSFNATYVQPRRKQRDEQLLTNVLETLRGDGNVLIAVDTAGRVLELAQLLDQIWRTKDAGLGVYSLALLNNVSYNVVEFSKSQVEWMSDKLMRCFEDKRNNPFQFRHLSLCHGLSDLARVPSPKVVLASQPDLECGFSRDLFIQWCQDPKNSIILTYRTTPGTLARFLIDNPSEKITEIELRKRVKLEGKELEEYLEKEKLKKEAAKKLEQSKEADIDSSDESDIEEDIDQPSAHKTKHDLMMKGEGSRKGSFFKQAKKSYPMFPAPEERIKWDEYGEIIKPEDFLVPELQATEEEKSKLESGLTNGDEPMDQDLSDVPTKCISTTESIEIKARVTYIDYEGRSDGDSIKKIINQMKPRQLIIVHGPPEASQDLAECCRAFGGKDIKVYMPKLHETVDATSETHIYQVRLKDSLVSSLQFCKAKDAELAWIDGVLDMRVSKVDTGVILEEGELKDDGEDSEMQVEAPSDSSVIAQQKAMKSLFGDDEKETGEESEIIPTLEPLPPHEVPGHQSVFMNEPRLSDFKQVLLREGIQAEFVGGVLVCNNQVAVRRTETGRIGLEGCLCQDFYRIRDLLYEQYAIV
Procedure: as §1

B1: Flag-PAPα (canonical poly(A) polymerase) (enzyme)
chain: MPFPVTTQGSQQTQPPQKHYGITSPISLAAPKETDCVLTQKLIETLKPFGVFEEEEELQRRILILGKLNNLVKEWIREISESKNLPQSVIENVGGKIFTFGSYRLGVHTKGADIDALCVAPRHVDRSDFFTSFYDKLKLQEEVKDLRAVEEAFVPVIKLCFDGIEIDILFARLALQTIPEDLDLRDDSLLKNLDIRCIRSLNGCRVTDEILHLVPNIDNFRLTLRAIKLWAKRHNIYSNILGFLGGVSWAMLVARTCQLYPNAIASTLVHKFFLVFSKWEWPNPVLLKQPEECNLNLPVWDPRVNPSDRYHLMPIITPAYPQQNSTYNVSVSTRMVMVEEFKQGLAITDEILLSKAEWSKLFEAPNFFQKYKHYIVLLASAPTEKQRLEWVGLVESKIRILVGSLEKNEFITLAHVNPQSFPAPKENPDKEEFRTMWVIGLVFKKTENSENLSVDLTYDIQSFTDTVYRQAINSKMFEVDMKIAAMHVKRKQLHQLLPNHVLQKKKKHSTEGVKLTALNDSSLDLSMDSDNSMSVPSPTSATKTSPLNSSGSSQGRNSPAPAVTAASVTNIQATEVSVPQVNSSESSGGTSSESIPQTATQPAISPPPKPTVSRVVSSTRLVNPPPRSSGNAATSGNAATKIPTPIVGVKRTSSPHKEESPKKTKTEEDETSEDANCLALSGHDKTEAKEQLDTETSTTQSETIQTAASLLASQKTSSTDLSDIPALPANPIPVIKNSIKLRLNR
notes: not shown: FLAG tag
binding result (Symplekin): binds | binding result [1]: binds
